Measured values: patent publication US20230174663A1 (MEDABOME, published 2023)
Where “and” joins values, the source holds several entries; their conditions need not be identical. Equal entries are not always repeated.

Experiments:
[1] = target: T1, human TfR1-GFP fusion protein (rTfR1-GFP) expressed on the membrane of CHO-DG44 cells (human, UniProt P02786 1-760); test: FACS titration on CHO/rTfR1-GFP cells
T1 construct: whole, on cells; also called CHO/rTfR1-GFP cells; CHO/rTfR-GFP cells; not shown: GFP (also called EGFP) fused in frame to the C-terminus
T1 sequence (P02786 whole entry, the tested form may be a part): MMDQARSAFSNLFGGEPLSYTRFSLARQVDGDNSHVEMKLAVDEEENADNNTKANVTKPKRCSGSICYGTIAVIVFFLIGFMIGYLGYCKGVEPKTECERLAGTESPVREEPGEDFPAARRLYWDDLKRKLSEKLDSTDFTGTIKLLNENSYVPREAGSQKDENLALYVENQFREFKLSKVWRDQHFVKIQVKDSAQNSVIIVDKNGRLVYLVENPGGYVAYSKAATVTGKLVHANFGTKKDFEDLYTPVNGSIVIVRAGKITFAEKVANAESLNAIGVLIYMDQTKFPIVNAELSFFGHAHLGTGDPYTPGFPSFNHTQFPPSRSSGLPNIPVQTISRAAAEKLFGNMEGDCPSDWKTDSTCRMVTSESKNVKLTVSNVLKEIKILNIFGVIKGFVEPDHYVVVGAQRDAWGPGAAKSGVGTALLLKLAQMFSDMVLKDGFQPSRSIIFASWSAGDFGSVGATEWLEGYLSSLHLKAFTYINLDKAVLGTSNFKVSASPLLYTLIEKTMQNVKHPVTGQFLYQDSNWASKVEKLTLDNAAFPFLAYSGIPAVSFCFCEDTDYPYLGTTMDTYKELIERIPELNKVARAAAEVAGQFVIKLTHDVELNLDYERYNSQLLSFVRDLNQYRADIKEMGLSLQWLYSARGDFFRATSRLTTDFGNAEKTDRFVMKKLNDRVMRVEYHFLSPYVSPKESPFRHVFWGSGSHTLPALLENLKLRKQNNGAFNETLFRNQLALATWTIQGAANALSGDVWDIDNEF
Description: The cDNA was in-frame fused with a GFP-coding DNA fragment to its C-terminus and then cloned into an in-house expression vector containing the human CMV promoter and a puromycin resistant gene (PuroR) for selection. […] CHO cell colonies stably expressing high-level EGFP were isolated and subcloned.

[2] = target: T2, recombinantly expressed human TfR1 extracellular domain with a His tag (rTfR1-ECD, ACRO Biosystems) (human, UniProt P02786 89-760); test: direct ELISA, plate coated with 0.1 µg/mL rTfR1-ECD, detection anti-mouse IgG Fc-HRP
T2 construct: extracellular domain; Bought reagent; also called 6His-tagged rTfR1-ECD; extracellular domain of TfR1
T2 sequence (P02786 other isoform, or with tags, fused parts or gaps): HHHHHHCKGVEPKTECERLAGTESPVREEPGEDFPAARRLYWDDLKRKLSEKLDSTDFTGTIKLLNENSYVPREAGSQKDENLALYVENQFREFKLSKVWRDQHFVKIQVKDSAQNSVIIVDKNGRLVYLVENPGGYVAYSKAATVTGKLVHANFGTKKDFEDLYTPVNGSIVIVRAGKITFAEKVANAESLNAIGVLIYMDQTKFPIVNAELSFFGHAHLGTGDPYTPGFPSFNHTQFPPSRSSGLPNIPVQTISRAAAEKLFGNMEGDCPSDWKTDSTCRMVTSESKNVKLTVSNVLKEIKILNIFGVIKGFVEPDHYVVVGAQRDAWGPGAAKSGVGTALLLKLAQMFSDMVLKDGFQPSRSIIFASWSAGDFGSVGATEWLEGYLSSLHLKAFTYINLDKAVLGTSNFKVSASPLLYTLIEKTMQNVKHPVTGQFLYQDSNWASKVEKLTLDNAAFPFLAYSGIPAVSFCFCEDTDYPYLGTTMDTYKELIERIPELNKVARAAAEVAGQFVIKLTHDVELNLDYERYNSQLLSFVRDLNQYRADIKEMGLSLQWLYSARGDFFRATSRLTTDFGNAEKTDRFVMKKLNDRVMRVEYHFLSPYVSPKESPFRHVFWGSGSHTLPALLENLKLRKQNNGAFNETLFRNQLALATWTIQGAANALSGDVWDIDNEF
Procedure: The plate was coated with 0.1 μg/mL of purified rTfR1-ECD containing a C-terminal 6×His tag. A mouse anti-6×His mAb and an isotype control Ab were used as positive and negative controls, respectively. All the primary antibodies were in 3-fold serial dilutions with a starting concentration of 3 μg/mL. Peroxidase AffiniPure Goat Anti-Mouse IgG Fey at 1:6,000 dilution was used for detection.
3,3′,5,5′-Tetramethylbenzidine (TMB) substrate was added and absorbance at 450 nm of wavelength was measured using a SpectraMax microplate reader (Molecular Device, San Jose, Calif.).

[3] = target: T2, recombinantly expressed human TfR1 …; test: BLI (Octet QK), 10 nM mAb loaded on anti-mouse Fc sensors; same value printed in the rows 20, 8, 3.2 and 1.28 nM rTfR1-ECD; koff Error blank
[4] = target: T2, recombinantly expressed human TfR1 …; test: BLI (Octet QK), mAb captured on anti-mouse Fc (AMC) biosensors, rTfR1-ECD in solution
[5] = target: T2, recombinantly expressed human TfR1 …; test: BLI (Octet QK), 50 nM mAb loaded on anti-mouse Fc sensors; same value printed in the rows 20, 8, 3.2 and 1.28 nM rTfR1-ECD; koff Error blank
[6] = target: T2, recombinantly expressed human TfR1 …; test: BLI (Octet QK), 50 nM mAb loaded on anti-mouse Fc sensors; same value printed in the rows 20, 8, 3.2 and 1.28 nM rTfR1-ECD; kon Error 9.80E+03, Full R^2 0.9909
[7] = target: T2, recombinantly expressed human TfR1 …; test: BLI (Octet QK), 10 nM mAb loaded on anti-mouse Fc sensors; same value printed in the rows 20, 8, 3.2 and 1.28 nM rTfR1-ECD; kon Error 2.12E+04, Full R^2 0.989
[8] = target: T2, recombinantly expressed human TfR1 …; test: BLI (Octet QK), cAb captured on anti-human Fc (AHC) biosensors, rTfR1-ECD 50 nM to 1.28 nM in solution
Procedure: (§1) Concentrations of rTfR1-ECD ranged from 50 nM to 1.28 nM by 2.5-fold serial dilutions.

[9] = target: T2, recombinantly expressed human TfR1 …; test: BLI (Octet QK), 50 nM cAb loaded on anti-human Fc sensors; same value printed in the rows 50, 20, 8, 3.2 and 1.28 nM rTfR1-ECD; kon Error 2.34E+03, Full R^2 0.9963
Procedure: as §1

[10] = target: T2, recombinantly expressed human TfR1 …; test: BLI (Octet QK), 10 nM cAb loaded on anti-human Fc sensors; same value printed in the rows 50, 20, 8, 3.2 and 1.28 nM rTfR1-ECD; koff Error blank
Procedure: as §1

[11] = target: T2, recombinantly expressed human TfR1 …; test: BLI (Octet QK), 10 nM cAb loaded on anti-human Fc sensors; same value printed in the rows 50, 20, 8, 3.2 and 1.28 nM rTfR1-ECD; kon Error 5.18E+03, Full R^2 0.9885
Procedure: as §1

[12] = target: T2, recombinantly expressed human TfR1 …; test: BLI (Octet QK), 50 nM cAb loaded on anti-human Fc sensors; same value printed in the rows 50, 20, 8, 3.2 and 1.28 nM rTfR1-ECD; koff Error blank
Procedure: as §1

IC50 [1] | EC50 (read off the curve) [2] [µg/mL] | koff [3] [s⁻¹] | Kd [4] [pM] | koff [5] [s⁻¹] | kon [6] [M⁻¹ s⁻¹] | kon [7] [M⁻¹ s⁻¹] | Kd [8] [pM] | kon [9] [M⁻¹ s⁻¹] | koff [10] [s⁻¹] | kon [11] [M⁻¹ s⁻¹] | koff [12] [s⁻¹] | Binder
~0.1 µg/mL |  |  |  |  |  |  |  |  |  |  |  | anti-human TfR1 control mAb (R&D Systems) (antibody, V domains shown) VH: QVQLQQSGPELVKPGASVKMSCKASGYTFTNYYIHWVKQRPGQGLEWIGWIYPGDGSTKYNEKFKGKTTLTADKSSSTAYMLLSSLTSEDSAIYFCARDGSSAPKFTYWGQGTLVTVSA VL: DIVMTQSPSSLTVTAGEKVTMRCKSSQSLLNSGNQKNYLTWYQQKPGQPPKLLIYWASTRESGVPDRFTGSGSGTDFTLTISSVQAEDLAVYYCQNDYSYPLTFGAGTKLELK
0.03 µg/mL and 0.04 µg/mL | ~0.04 | < 1e-07 | < 1 | < 1e-07 | 604000 | 1.16e+06 |  |  |  |  |  | MAb11-22.1 mAb (antibody, IgG1, V domains shown, Mouse hybridoma antibody, IgG1/kappa; both are kept under this molecule) VH: EVQLQQSGPELVKPGASVRISCKTSGYTFTNYYIHWMKQRPGQGLEWIGWIYPGDGNSHYNEKFKGKTTLTADKSSSTGYILLSSLTSEDSAVYFCTRDYDNYGGFAYWGQGTLVTVSA VL: IVMTQSPSSLTVTAGEKVTMSCKSSQSLLNSGNQKNYLTWYQQKPGQPPKLLIYWASTWESRVPDHFTGSGSGTDFTLTISSVQAEDLAVYYCQNDYSYPLTFGAGTKLELKR
 |  |  |  |  |  |  | < 1 | 196000 | < 1e-07 | 244000 | < 1e-07 | MAb11-22.1 chimeric Ab (cAb) (antibody, V domains shown, not shown: constant region of human IgG1 heavy chain (CH1-CH3); constant region of human kappa light chain (CL)) VH: EVQLQQSGPELVKPGASVRISCKTSGYTFTNYYIHWMKQRPGQGLEWIGWIYPGDGNSHYNEKFKGKTTLTADKSSSTGYILLSSLTSEDSAVYFCTRDYDNYGGFAYWGQGTLVTVSA VL: IVMTQSPSSLTVTAGEKVTMSCKSSQSLLNSGNQKNYLTWYQQKPGQPPKLLIYWASTWESRVPDHFTGSGSGTDFTLTISSVQAEDLAVYYCQNDYSYPLTFGAGTKLELKR
